Measurements from the supplement of paper PMC10567573.

B1: KCNA3 (parent)
chain: YQSGGRIRRPVNVPIDIFSEEIRF

Variants of: B1
Assay: protein stability index of a GFP-peptide fusion (GPS, HEK-293T) (PSI 1-6); higher = more stable
Conditions: c terminus: a fixed tail appended
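Further: lentivirally expressed fusions sorted by FACS into six bins by GFP to DsRed ratio, PSI derived from sequencing read proportions per bin multiplied by bin number.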

Question: With YQSGGRIRRPVNVWIDIFSEEIRF [P14W] as the variant, how does the protein stability index read?
Answer: 2.98

Question: For YQSGGRIRRPVNVMIDIFSEEIRF [P14M], which protein stability index is on record?
Answer: 3.25

Question: With YQSGGRIRRPVNVLIDIFSEEIRF [P14L] as the variant, how does the protein stability index read?
Answer: 2.85

Question: Which protein stability index does the source give for YQSGGRIRRPVNVKIDIFSEEIRF [P14K] here?
Answer: 1.78

Question: Which protein stability index does the source give for YQSGGRIRRPVNVQIDIFSEEIRF [P14Q] here?
Answer: 3.61

Question: Which protein stability index does the source give for YQSGGRIRRPVNVVIDIFSEEIRF [P14V] here?
Answer: 1.61

Question: With YQSGGRIRRPVNVSIDIFSEEIRF [P14S] as the variant, how does the protein stability index read?
Answer: 1.42

Question: Which protein stability index does the source give for YQSGGRIRRPVNVTIDIFSEEIRF [P14T] here?
Answer: 1.81

Question: Which protein stability index does the source give for YQSGGRIRRPVNVPIDIFSEEYRF [I22Y] here?
Answer: 1.8

Question: With YQSGGRIRRPVNVPIDIFSEEDRF [I22D] as the variant, how does the protein stability index read?
Answer: 2.5

Question: For YQSGGRIRRPVNVPIDIFSEELRF [I22L], which protein stability index is on record?
Answer: 2.06

Question: Which protein stability index does the source give for YQSGGRIRRPVNVPIDIFSEESRF [I22S] here?
Answer: 2.29

Question: For YQSGGRIRRPVNVPIDIFSEENRF [I22N], which protein stability index is on record?
Answer: 2.82

Question: Which protein stability index does the source give for YQSGGRIRRPVNVPIDIFSEEFRF [I22F] here?
Answer: 1.69

Question: Which protein stability index does the source give for YQSGGRIRRPVNVPIDIFSEEPRF [I22P] here?
Answer: 1.98

Question: For YQSGGRIRRPVNVPIDIFSEEQRF [I22Q], which protein stability index is on record?
Answer: 2.86

Question: Which protein stability index does the source give for YQSGGRIRRPVNVPIDIFSEEHRF [I22H] here?
Answer: 2.71

Question: Which protein stability index does the source give for YQSGGRIRRPVNVPIDIFSEETRF [I22T] here?
Answer: 2.2

Question: For YQSGGRIRRPVNVPIDIFSEEVRF [I22V], which protein stability index is on record?
Answer: 3.48

Question: Which protein stability index does the source give for YQSGGRIRRPVNVPIDIFSEEKRF [I22K] here?
Answer: 2.31

Question: For YQSGGRIRRPVNVPIDIFSEEGRF [I22G], which protein stability index is on record?
Answer: 1.68

Question: For YQSGGRIRRPVNVPIDIFSEEMRF [I22M], which protein stability index is on record?
Answer: 2.29

Question: For YQSGGRIRRPVNVPIDIFSEEARF [I22A], which protein stability index is on record?
Answer: 1.34

Question: Which protein stability index does the source give for YQSGGRIRRPVNVPIDIFSEERRF [I22R] here?
Answer: 2.68

Question: With YQSGGRIRRPVNVPIDIFSEEIFF [R23F] as the variant, how does the protein stability index read?
Answer: 1.53

Question: Which protein stability index does the source give for YQSGGRIRRPVNVPIDIFSEEINF [R23N] here?
Answer: 1.77

Question: For YQSGGRIRRPVNVPIDIFSEEIMF [R23M], which protein stability index is on record?
Answer: 1.67

Question: Which protein stability index does the source give for YQSGGRIRRPVNVPIDIFSEEIPF [R23P] here?
Answer: 1.97

Question: With YQSGGRIRRPVNVPIDIFSEEITF [R23T] as the variant, how does the protein stability index read?
Answer: 1.62

Question: For YQSGGRIRRPVNVPIDIFSEEILF [R23L], which protein stability index is on record?
Answer: 1.28

Question: With YQSGGRIRRPVNVPIDIFSEEIKF [R23K] as the variant, how does the protein stability index read?
Answer: 2.3

Question: For YQSGGRIRRPVNVPIDIFSEEICF [R23C], which protein stability index is on record?
Answer: 1.23

Question: With YQSGGRIRRPVNVPIDIFSEEIHF [R23H] as the variant, how does the protein stability index read?
Answer: 2.37

Question: Which protein stability index does the source give for YQSGGRIRRPVNVPIDIFSEEIEF [R23E] here?
Answer: 2.19

Question: Which protein stability index does the source give for YQSGGRIRRPVNVPIDIFSEEIAF [R23A] here?
Answer: 2.29

Question: Which protein stability index does the source give for YQSGGRIRRPVNVPIDIFSEEIWF [R23W] here?
Answer: 1.05

Question: With YQSGGRIRRPVNVPIDIFSEEIQF [R23Q] as the variant, how does the protein stability index read?
Answer: 1.72

Question: With YQSGGRIRRPVNVPIDIFSEEIVF [R23V] as the variant, how does the protein stability index read?
Answer: 1.68

Question: For YQSGGRIRRPVNVPIDIFSEEIDF [R23D], which protein stability index is on record?
Answer: 3

Question: With YQSGGRIRRPVNVPIDIFSEEIRH [F24H] as the variant, how does the protein stability index read?
Answer: 2.4

Question: For YQSGGRIRRPVNVPIDIFSEEIRG [F24G], which protein stability index is on record?
Answer: 1.62

Question: For YQSGGRIRRPVNVPIDIFSEEIRP [F24P], which protein stability index is on record?
Answer: 2.26

Question: Which protein stability index does the source give for YQSGGRIRRPVNVPIDIFSEEIRM [F24M] here?
Answer: 2.52

Question: For YQSGGRIRRPVNVPIDIFSEEIRK [F24K], which protein stability index is on record?
Answer: 1.94

Question: For YQSGGRIRRPVNVPIDIFSEEIRA [F24A], which protein stability index is on record?
Answer: 2.53

Question: Which protein stability index does the source give for YQSGGRIRRPVNVPIDIFSEEIRW [F24W] here?
Answer: 1.66

Question: For YQSGGRIRRPVNVPIDIFSEEIRL [F24L], which protein stability index is on record?
Answer: 2.37

Question: Which protein stability index does the source give for YQSGGRIRRPVNVPIDIFSEEIRQ [F24Q] here?
Answer: 2.31

Question: For YQSGGRIRRPVNVPIDIFSEEIRS [F24S], which protein stability index is on record?
Answer: 2.4

Question: Which protein stability index does the source give for YQSGGRIRRPVNVPIDIFSEEIRR [F24R] here?
Answer: 2.38

Question: With YQSGGRIRRPVNVPIDIFSEEIRI [F24I] as the variant, how does the protein stability index read?
Answer: 2.47

Question: For YQSGGRIRRPVNVPIDIFSEEIRC [F24C], which protein stability index is on record?
Answer: 2.32

Question: Which protein stability index does the source give for YQSGGRIRRPVNVPIDIFSEEIRN [F24N] here?
Answer: 3.24

Question: For YQSGGRIRRPVNVPIDIFSEEIRD [F24D], which protein stability index is on record?
Answer: 2.1

Question: With YQSGGRIRRPVNVPIDIFSEEIRV [F24V] as the variant, how does the protein stability index read?
Answer: 2.42

Question: For YQSGGRIRRPVNVPIDIFSEEIRT [F24T], which protein stability index is on record?
Answer: 2.52

Question: With YQSGGRIRRPVNVPIDIFSESIRF [E21S] as the variant, how does the protein stability index read?
Answer: 1.48

Question: Which protein stability index does the source give for YQSGGRIRRPVNVPIDIFSEFIRF [E21F] here?
Answer: 1.62

Question: Which protein stability index does the source give for YQSGGRIRRPVNVPIDIFSEAIRF [E21A] here?
Answer: 2.27

Question: For YQSGGRIRRPVNVPIDIFSEQIRF [E21Q], which protein stability index is on record?
Answer: 2.75

Question: Which protein stability index does the source give for YQSGGRIRRPVNVPIDIFSEMIRF [E21M] here?
Answer: 1.87

Question: With YQSGGRIRRPVNVPIDIFSEDIRF [E21D] as the variant, how does the protein stability index read?
Answer: 1.56

Question: Which protein stability index does the source give for YQSGGRIRRPVNVPIDIFSEKIRF [E21K] here?
Answer: 1.84

Question: With YQSGGRIRRPVNVPIDIFSEHIRF [E21H] as the variant, how does the protein stability index read?
Answer: 2

Question: Which protein stability index does the source give for YQSGGRIRRPVNVPIDIFSETIRF [E21T] here?
Answer: 1.95

Question: Which protein stability index does the source give for YQSGGRIRRPVNVPIDIFSEVIRF [E21V] here?
Answer: 1.97

Question: With YQSGGRIRRPVNVPIDIFSERIRF [E21R] as the variant, how does the protein stability index read?
Answer: 2.38

Question: With YQSGGRIRRPVNVPIDIFSEPIRF [E21P] as the variant, how does the protein stability index read?
Answer: 1.65

Question: Which protein stability index does the source give for YQSGGRIRRPVNVPIDIFSENIRF [E21N] here?
Answer: 2.33

Question: For YQSGGRIRRPVNVPIDIFSECIRF [E21C], which protein stability index is on record?
Answer: 2.51

Question: For YQSGGRIRRPVNVPIDIFSEIIRF [E21I], which protein stability index is on record?
Answer: 1.6

Question: For YQSGGRIRRPVNVPIDIFSELIRF [E21L], which protein stability index is on record?
Answer: 2.09

Question: With YQSGGRIRRPVNVPIDIFSEYIRF [E21Y] as the variant, how does the protein stability index read?
Answer: 2.56

Question: For YQSGGRIRRPVNVPIDQFSEEIRF [I17Q], which protein stability index is on record?
Answer: 1.89

Question: Which protein stability index does the source give for YQSGGRIRRPVNVPIDMFSEEIRF [I17M] here?
Answer: 2.21

Question: Which protein stability index does the source give for YQSGGRIRRPVNVPIDVFSEEIRF [I17V] here?
Answer: 2.48

Question: With YQSGGRIRRPVNVPIDGFSEEIRF [I17G] as the variant, how does the protein stability index read?
Answer: 2.19

Question: With YQSGGRIRRPVNVPIDYFSEEIRF [I17Y] as the variant, how does the protein stability index read?
Answer: 2.79

Question: For YQSGGRIRRPVNVPIDPFSEEIRF [I17P], which protein stability index is on record?
Answer: 3.32

Question: With YQSGGRIRRPVNVPIDCFSEEIRF [I17C] as the variant, how does the protein stability index read?
Answer: 2.48

Question: For YQSGGRIRRPVNVPIDRFSEEIRF [I17R], which protein stability index is on record?
Answer: 2.48

Question: Which protein stability index does the source give for YQSGGRIRRPVNVPIDEFSEEIRF [I17E] here?
Answer: 3.04

Question: With YQSGGRIRRPVNVPIDLFSEEIRF [I17L] as the variant, how does the protein stability index read?
Answer: 1.86

Question: For YQSGGRIRRPVNVPIDKFSEEIRF [I17K], which protein stability index is on record?
Answer: 2.05

Question: For YQSGGRIRRPVNVPIDNFSEEIRF [I17N], which protein stability index is on record?
Answer: 2.74

Question: Which protein stability index does the source give for YQSGGRIRRPVNVPIDSFSEEIRF [I17S] here?
Answer: 2.33

Question: For YQSGGRIRRPVNVPIDDFSEEIRF [I17D], which protein stability index is on record?
Answer: 2.34

Question: For YQSGGRIRRPVNVPIDAFSEEIRF [I17A], which protein stability index is on record?
Answer: 2.85

Question: With YQSGGRIRRPVNVPIDFFSEEIRF [I17F] as the variant, how does the protein stability index read?
Answer: 1.76

Question: With YQSGGRIRRPVNVPIDWFSEEIRF [I17W] as the variant, how does the protein stability index read?
Answer: 1.23

Question: With YQSGGRIRRPVNVPIDHFSEEIRF [I17H] as the variant, how does the protein stability index read?
Answer: 1.91

Question: Which protein stability index does the source give for YQSGGRIRRPVNVPIDTFSEEIRF [I17T] here?
Answer: 1.97

Question: Which protein stability index does the source give for YQSGGRIRRPVNVPIDIFLEEIRF [S19L] here?
Answer: 1.41

Question: Which protein stability index does the source give for YQSGGRIRRPVNVPIDIFREEIRF [S19R] here?
Answer: 1.64
